According to patent US20220048962:

Test system: MBP-CIRTS-1 (ORF5-TBP6.7-SMG6 Pin nuclease fusion) (synthetic fusion (Grapevine virus A ORF5; Homo sapiens U1A-derived TBP6.7; Homo sapiens SMG6))
Assay: FP filter
Settings: apparent; text states ~50-fold weaker than on-target

Substance: non-targeting TAR-hairpin gRNA ; model RNA substrate (R1)
- Kd: 500 nM
